According to patent US20100150950A1, “HUMAN ANTIBODIES THAT BIND CD70 AND USES THEREOF” (Medarex, Inc., priority 2006, published 2010):
Positions count from the first letter of the chain named. One block for each molecule: values may come before it.

How the values were obtained:
[1] = molecular target: T1, CD70 expressed on the surface of Daudi lymphoma cells (Homo sapiens, UniProt P32970); assay: Flow cytometry binding to Daudi cells; details: antibody 1 μg/ml
T1 construct: endogenous in cells; host or cells: Daudi (ATCC CCL-213), HuT 78 (TIB-161), Raji (CCL-86), Granta 519 (DSMZ 342)
T1 sequence (P32970 1-193): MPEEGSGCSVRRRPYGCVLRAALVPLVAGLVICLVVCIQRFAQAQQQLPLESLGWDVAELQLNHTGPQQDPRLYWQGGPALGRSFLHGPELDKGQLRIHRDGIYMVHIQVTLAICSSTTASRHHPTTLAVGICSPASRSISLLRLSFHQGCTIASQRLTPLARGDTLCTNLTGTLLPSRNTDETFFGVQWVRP
Description: (§1) Anti-CD70 antibodies were tested for binding to lymphoma cells expressing CD70 on their cell surface by flow cytometry.
(§2) The lymphoma cell lines Daudi (ATCC Accession No. CCL-213), HuT 78 (ATCC Accession No. TIB-161) and Raji (ATCC Accession No. CCL-86) were each tested for antibody binding. Binding of the HuMAb 2H5 anti-CD70 human monoclonal antibody was assessed by incubating 1×10^5 cells with 2H5 at a concentration of 1 μg/ml. The cells were washed and binding was detected with a FITC-labeled anti-human IgG Ab. […] Flow cytometric analyses were performed using a FACSCalibur flow cytometry (Becton Dickinson, San Jose, Calif.). The anti-CD70 monoclonal antibody 2H5 bound to the lymphoma cell lines Daudi, HuT 78 and Raji, as measured by the mean fluorescent intensity (MFI) of staining.
The Daudi lymphoma cell line and 786-O renal carcinoma cell were further tested for antibody binding. Binding of the HuMAb 69A7 anti-CD70 human monoclonal antibody was assessed by incubating 2×10^5 cells with 69A7 at a concentration of 1 μg/ml. The cells were washed and binding was detected with a FITC-labeled anti-human IgG Ab. […] The anti-CD70 monoclonal antibody 69A7 bound to the Daudi lymphoma cell line and 786-O renal carcinoma cell line, as measured by the mean fluorescent intensity (MFI) of staining.

[2] = molecular target: T2, CD70 expressed on the surface of Raji lymphoma cells (Homo sapiens, UniProt P32970); assay: Flow cytometry binding to Raji cells; details: antibody 10 μg/ml
T2 construct: endogenous in cells; host or cells: Daudi (ATCC CCL-213), HuT 78 (TIB-161), Raji (CCL-86), Granta 519 (DSMZ 342)
T2 sequence (P32970 1-193): T1 sequence (P32970 1-193)
Description: as §1, §2
The lymphoma cell lines Raji and Granta 519 (DSMZ Accession No. 342) were tested for binding of the HuMAb anti-CD70 human monoclonal antibody 2H5 at varying concentrations. Binding of the anti-CD70 human monoclonal antibodies was assessed by incubating 5×10^5 cells with antibody at a starting concentration of 50 μg/ml and serially diluting the antibody at a 1:3 dilution. An isotype control antibody was used as a negative control. The cells were washed and binding was detected with a PE-labeled anti-human IgG Ab. […]

HuT 78 cells = assay: ADCC fluorescence cytotoxicity assay, HuT 78; format: cell-based, human; details: target to effector ratio 1:50
Description: In this example, anti-CD70 monoclonal antibodies were tested for the ability to kill CD70+ cell lines in the presence of effector cells via antibody dependent cellular cytotoxicity (ADCC) in a fluorescence cytotoxicity assay.
Human effector cells were prepared from whole blood as follows. Human peripheral blood mononuclear cells were purified from heparinized whole blood by standard Ficoll-paque separation. The cells were resuspended in RPMI1640 media containing 10% FBS and 200 U/ml of human IL-2 and incubated overnight at 37° C. The following day, the cells were collected and washed four times in culture media and resuspended at 2×10^7 cells/ml. […]
The CD70+ cell lines ARH-77 (human B lymphoblast leukemia; ATCC Accession No. CRL-1621), HuT 78 (human cutaneous lymphocyte lymphoma; ATCC Accession No. TIB-161), Raji (human B lymphocyte Burkitt's lymphoma; ATCC Accession No. CCL-86) and a negative control cell line L540 (human Hodgkin's lymphoma; DSMZ Deposit No. ACC 72) were tested for antibody specific ADCC to the human anti-CD70 monoclonal antibodies using the Delfia fluorescence emission analysis as follows. […]
In this example, a defucosylated and non-defucosylated anti-CD70 monoclonal antibody was tested for the ability to kill CD70+cells in the presence of effector cells via antibody dependent cellular cytotoxicity (ADCC) in a fluorescence cytotoxicity assay […]

binding to Daudi cells (MFI) [1]: bound
binding to Raji cells (MFI) [2]: bound
B1: anti-CD70 human monoclonal antibody 69A7 (antibody, V domains shown)
VH: QVQLQESGPGLVKPSETLSLTCTVSGGSVSSDYYYWSWIRQPPGKGLEWLGYIYYSGSTNYNPSLKSRVTISVDTSKNQFSLKLRSVTTADTAVYYCARGDGDYGGNCFDYWGQGTLVTVSS
VL: EIVLTQSPATLSLSPGERATLSCRASQSVSSYLAWYQQKPGQAPRLLIFDASNRATGIPARFSGSGSGTDFTLTISSLEPEDFAVYYCQQRSNWPLTFGGGTKVEIK
notes: Human IgG from hybridoma; also called HuMAb 69A7; FITC-conjugated 69A7

B2: 2H5 NF: 2H5 HuMAb lacking fucosyl residues, expressed in CHO cell line Ms704-PF (antibody, V domains shown)
VH: QVQLVESGGGVVQPGRSLRLSCAASGFTFSSYIMHWVRQAPGKGLEWVAVISYDGRNKYYADSVKGRFTISRDNSKNTLYLQMNSLRAEDTAVYYCARDTDGYDFDYWGQGTLVTVSS
VL: B1 VL with F49Y, S92T
ADCC, % lysis of HuT 78 (HuT 78 cells): increased percentage of specific lysis
